Data: article PMC3590443 (Nature structural & molecular biology, 2012)
Blank lines part the entries; values can stand above or below the binder they belong to.

B1: Nrp1_(1-4) (mouse Nrp1 residues 22-586) (domain or fragment, UniProt P97333 22-586, looked up)
chain: FRSDKCGGTIKIENPGYLTSPGYPHSYHPSEKCEWLIQAPEPYQRIMINFNPHFDLEDRDCKYDYVEVIDGENEGGRLWGKFCGKIAPSPVVSSGPFLFIKFVSDYETHGAGFSIRYEIFKRGPECSQNYTAPTGVIKSPGFPEKYPNSLECTYIIFAPKMSEIILEFESFDLEQDSNPPGGMFCRYDRLEIWDGFPEVGPHIGRYCGQKTPGRIRSSSGVLSMVFYTDSAIAKEGFSANYSVLQSSISEDFKCMEALGMESGEIHSDQITASSQYGTNWSVERSRLNYPENGWTPGEDSYKEWIQVDLGLLRFVTAVGTQGAISKETKKKYYVKTYRVDISSNGEDWISLKEGNKAIIFQGNTNPTDVVLGVFSKPLITRFVRIKPVSWETGISMRFEVYGCKITDYPCSGMLGMVSGLISDSQITASNQADRNWMPENIRLVTSRTGWALPPSPHPYTNEWLQVDLGDEKIVRGVIIQGGKHRENKVFMRKFKIAYSNNGSDWKTIMDDSKRKAKSFEGNNNYDTPELRTFSPLSTRFIRIYPERATHSGLGLRMELLGCEVE

Experiments:
Experiment in all cases: SPR
PlxnA2_(1-4) F275N = molecular target: T1, PlxnA2_(1-4) F275N (mouse, UniProt P70207 35-703, F275N)
T1 sequence (looked up): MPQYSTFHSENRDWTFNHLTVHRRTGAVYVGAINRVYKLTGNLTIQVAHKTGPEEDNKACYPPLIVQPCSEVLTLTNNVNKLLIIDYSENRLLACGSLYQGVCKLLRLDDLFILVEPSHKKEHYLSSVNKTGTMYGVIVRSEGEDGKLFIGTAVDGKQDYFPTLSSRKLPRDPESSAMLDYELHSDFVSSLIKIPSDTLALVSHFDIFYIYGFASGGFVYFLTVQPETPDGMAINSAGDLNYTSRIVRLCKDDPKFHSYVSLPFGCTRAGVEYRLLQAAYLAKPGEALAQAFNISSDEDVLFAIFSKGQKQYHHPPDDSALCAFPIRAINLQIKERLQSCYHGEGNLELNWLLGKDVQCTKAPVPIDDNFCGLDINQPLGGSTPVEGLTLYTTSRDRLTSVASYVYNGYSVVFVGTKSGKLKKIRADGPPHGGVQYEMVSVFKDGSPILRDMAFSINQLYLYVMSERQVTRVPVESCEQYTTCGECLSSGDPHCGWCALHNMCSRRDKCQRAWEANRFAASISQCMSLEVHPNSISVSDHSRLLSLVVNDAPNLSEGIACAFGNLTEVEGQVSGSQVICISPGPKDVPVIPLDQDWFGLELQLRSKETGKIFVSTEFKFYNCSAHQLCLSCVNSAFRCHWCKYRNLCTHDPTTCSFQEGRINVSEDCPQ

[1] = molecular target: T2, Sema3AS-F with Nrp1_(1-4) (combination in the experiment with EDTA) (mouse, UniProt O08665 21-555; P97333 22-586)
T2 sequence (looked up) 1: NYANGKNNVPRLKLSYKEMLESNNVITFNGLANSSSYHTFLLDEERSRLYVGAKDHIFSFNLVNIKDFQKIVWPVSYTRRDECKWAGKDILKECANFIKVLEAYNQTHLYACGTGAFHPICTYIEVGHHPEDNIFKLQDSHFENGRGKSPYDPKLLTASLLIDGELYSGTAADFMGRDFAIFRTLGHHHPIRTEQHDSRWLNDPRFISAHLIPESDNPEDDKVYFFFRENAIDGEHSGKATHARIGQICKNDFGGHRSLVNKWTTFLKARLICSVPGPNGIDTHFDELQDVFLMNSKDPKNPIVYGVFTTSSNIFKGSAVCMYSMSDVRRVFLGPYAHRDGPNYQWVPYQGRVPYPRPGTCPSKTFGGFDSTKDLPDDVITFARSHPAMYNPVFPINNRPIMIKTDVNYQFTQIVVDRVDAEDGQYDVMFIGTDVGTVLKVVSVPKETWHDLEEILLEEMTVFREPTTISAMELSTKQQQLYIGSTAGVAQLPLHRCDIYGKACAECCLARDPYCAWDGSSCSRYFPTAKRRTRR
T2 sequence (looked up) 2: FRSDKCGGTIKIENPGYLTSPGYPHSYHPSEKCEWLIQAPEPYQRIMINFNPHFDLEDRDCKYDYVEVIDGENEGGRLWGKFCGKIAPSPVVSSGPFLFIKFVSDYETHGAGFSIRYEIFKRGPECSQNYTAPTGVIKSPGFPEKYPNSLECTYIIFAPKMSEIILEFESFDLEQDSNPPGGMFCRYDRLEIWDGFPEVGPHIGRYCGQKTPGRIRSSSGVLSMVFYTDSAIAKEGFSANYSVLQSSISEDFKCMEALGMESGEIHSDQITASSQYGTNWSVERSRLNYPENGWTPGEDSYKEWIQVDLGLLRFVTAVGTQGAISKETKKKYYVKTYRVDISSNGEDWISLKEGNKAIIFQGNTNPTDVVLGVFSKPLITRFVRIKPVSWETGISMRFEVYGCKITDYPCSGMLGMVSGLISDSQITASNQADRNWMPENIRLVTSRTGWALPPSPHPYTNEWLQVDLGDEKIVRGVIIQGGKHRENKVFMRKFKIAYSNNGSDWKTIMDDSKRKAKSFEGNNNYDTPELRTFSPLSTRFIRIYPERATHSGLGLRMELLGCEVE

Nrp1_(1-4) P73A H74S = molecular target: T3, Nrp1_(1-4) P73A H74S (mouse, UniProt P97333 22-586, P73A | H74S)
T3 sequence (looked up): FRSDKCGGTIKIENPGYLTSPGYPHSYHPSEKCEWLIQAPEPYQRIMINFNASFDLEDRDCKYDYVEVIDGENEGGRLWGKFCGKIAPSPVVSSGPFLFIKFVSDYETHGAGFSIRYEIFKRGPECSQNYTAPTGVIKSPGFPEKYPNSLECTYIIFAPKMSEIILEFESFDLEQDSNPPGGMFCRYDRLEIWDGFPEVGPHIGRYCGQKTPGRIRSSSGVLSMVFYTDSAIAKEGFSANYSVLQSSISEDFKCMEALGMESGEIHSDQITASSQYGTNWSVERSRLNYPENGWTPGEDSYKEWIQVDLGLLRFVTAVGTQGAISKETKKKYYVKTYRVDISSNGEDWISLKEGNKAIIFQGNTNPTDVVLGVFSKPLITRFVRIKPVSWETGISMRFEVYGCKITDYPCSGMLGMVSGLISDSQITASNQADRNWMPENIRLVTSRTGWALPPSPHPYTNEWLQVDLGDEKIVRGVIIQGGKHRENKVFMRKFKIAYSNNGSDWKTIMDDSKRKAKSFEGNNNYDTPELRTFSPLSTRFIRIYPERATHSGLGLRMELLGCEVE

[2] = molecular target: B1

Binder: B1
binding result (PlxnA2_(1-4) F275N): binds

binding result [1]: binds
B2: PlxnA2_(1-4) (mouse PlxnA2 residues 35-703) (domain or fragment, UniProt P70207 35-703, looked up)
chain: MPQYSTFHSENRDWTFNHLTVHRRTGAVYVGAINRVYKLTGNLTIQVAHKTGPEEDNKACYPPLIVQPCSEVLTLTNNVNKLLIIDYSENRLLACGSLYQGVCKLLRLDDLFILVEPSHKKEHYLSSVNKTGTMYGVIVRSEGEDGKLFIGTAVDGKQDYFPTLSSRKLPRDPESSAMLDYELHSDFVSSLIKIPSDTLALVSHFDIFYIYGFASGGFVYFLTVQPETPDGMAINSAGDLFYTSRIVRLCKDDPKFHSYVSLPFGCTRAGVEYRLLQAAYLAKPGEALAQAFNISSDEDVLFAIFSKGQKQYHHPPDDSALCAFPIRAINLQIKERLQSCYHGEGNLELNWLLGKDVQCTKAPVPIDDNFCGLDINQPLGGSTPVEGLTLYTTSRDRLTSVASYVYNGYSVVFVGTKSGKLKKIRADGPPHGGVQYEMVSVFKDGSPILRDMAFSINQLYLYVMSERQVTRVPVESCEQYTTCGECLSSGDPHCGWCALHNMCSRRDKCQRAWEANRFAASISQCMSLEVHPNSISVSDHSRLLSLVVNDAPNLSEGIACAFGNLTEVEGQVSGSQVICISPGPKDVPVIPLDQDWFGLELQLRSKETGKIFVSTEFKFYNCSAHQLCLSCVNSAFRCHWCKYRNLCTHDPTTCSFQEGRINVSEDCPQ

binding result (Nrp1_(1-4) P73A H74S): binds
B3: Sema3AS-P (mouse Sema3A residues 21-568, furin site mutated R551A and R555A) (domain or fragment, UniProt O08665 21-568, looked up)
chain: NYANGKNNVPRLKLSYKEMLESNNVITFNGLANSSSYHTFLLDEERSRLYVGAKDHIFSFNLVNIKDFQKIVWPVSYTRRDECKWAGKDILKECANFIKVLEAYNQTHLYACGTGAFHPICTYIEVGHHPEDNIFKLQDSHFENGRGKSPYDPKLLTASLLIDGELYSGTAADFMGRDFAIFRTLGHHHPIRTEQHDSRWLNDPRFISAHLIPESDNPEDDKVYFFFRENAIDGEHSGKATHARIGQICKNDFGGHRSLVNKWTTFLKARLICSVPGPNGIDTHFDELQDVFLMNSKDPKNPIVYGVFTTSSNIFKGSAVCMYSMSDVRRVFLGPYAHRDGPNYQWVPYQGRVPYPRPGTCPSKTFGGFDSTKDLPDDVITFARSHPAMYNPVFPINNRPIMIKTDVNYQFTQIVVDRVDAEDGQYDVMFIGTDVGTVLKVVSVPKETWHDLEEILLEEMTVFREPTTISAMELSTKQQQLYIGSTAGVAQLPLHRCDIYGKACAECCLARDPYCAWDGSSCSRYFPTAKARTRAQDIRNGDPLTHCS

binding result [2]: binds
B4: Sema3AS-P L353N P355S (domain or fragment, mouse, UniProt O08665 21-568, looked up)
chain: NYANGKNNVPRLKLSYKEMLESNNVITFNGLANSSSYHTFLLDEERSRLYVGAKDHIFSFNLVNIKDFQKIVWPVSYTRRDECKWAGKDILKECANFIKVLEAYNQTHLYACGTGAFHPICTYIEVGHHPEDNIFKLQDSHFENGRGKSPYDPKLLTASLLIDGELYSGTAADFMGRDFAIFRTLGHHHPIRTEQHDSRWLNDPRFISAHLIPESDNPEDDKVYFFFRENAIDGEHSGKATHARIGQICKNDFGGHRSLVNKWTTFLKARLICSVPGPNGIDTHFDELQDVFLMNSKDPKNPIVYGVFTTSSNIFKGSAVCMYSMSDVRRVFNGSYAHRDGPNYQWVPYQGRVPYPRPGTCPSKTFGGFDSTKDLPDDVITFARSHPAMYNPVFPINNRPIMIKTDVNYQFTQIVVDRVDAEDGQYDVMFIGTDVGTVLKVVSVPKETWHDLEEILLEEMTVFREPTTISAMELSTKQQQLYIGSTAGVAQLPLHRCDIYGKACAECCLARDPYCAWDGSSCSRYFPTAKARTRAQDIRNGDPLTHCS
